Target: T1, OB-R (Homo sapiens, UniProt P48357)
T1 construct: After confirming via Western that the primary EEC and ESC and endometrial cell lines utilized herein had OB-R; endogenous in cells; host or cells: primary human EEC and ESC; Ishikawa (ECACC 9832301) and HES cell lines
T1 sequence (P48357 22-1165): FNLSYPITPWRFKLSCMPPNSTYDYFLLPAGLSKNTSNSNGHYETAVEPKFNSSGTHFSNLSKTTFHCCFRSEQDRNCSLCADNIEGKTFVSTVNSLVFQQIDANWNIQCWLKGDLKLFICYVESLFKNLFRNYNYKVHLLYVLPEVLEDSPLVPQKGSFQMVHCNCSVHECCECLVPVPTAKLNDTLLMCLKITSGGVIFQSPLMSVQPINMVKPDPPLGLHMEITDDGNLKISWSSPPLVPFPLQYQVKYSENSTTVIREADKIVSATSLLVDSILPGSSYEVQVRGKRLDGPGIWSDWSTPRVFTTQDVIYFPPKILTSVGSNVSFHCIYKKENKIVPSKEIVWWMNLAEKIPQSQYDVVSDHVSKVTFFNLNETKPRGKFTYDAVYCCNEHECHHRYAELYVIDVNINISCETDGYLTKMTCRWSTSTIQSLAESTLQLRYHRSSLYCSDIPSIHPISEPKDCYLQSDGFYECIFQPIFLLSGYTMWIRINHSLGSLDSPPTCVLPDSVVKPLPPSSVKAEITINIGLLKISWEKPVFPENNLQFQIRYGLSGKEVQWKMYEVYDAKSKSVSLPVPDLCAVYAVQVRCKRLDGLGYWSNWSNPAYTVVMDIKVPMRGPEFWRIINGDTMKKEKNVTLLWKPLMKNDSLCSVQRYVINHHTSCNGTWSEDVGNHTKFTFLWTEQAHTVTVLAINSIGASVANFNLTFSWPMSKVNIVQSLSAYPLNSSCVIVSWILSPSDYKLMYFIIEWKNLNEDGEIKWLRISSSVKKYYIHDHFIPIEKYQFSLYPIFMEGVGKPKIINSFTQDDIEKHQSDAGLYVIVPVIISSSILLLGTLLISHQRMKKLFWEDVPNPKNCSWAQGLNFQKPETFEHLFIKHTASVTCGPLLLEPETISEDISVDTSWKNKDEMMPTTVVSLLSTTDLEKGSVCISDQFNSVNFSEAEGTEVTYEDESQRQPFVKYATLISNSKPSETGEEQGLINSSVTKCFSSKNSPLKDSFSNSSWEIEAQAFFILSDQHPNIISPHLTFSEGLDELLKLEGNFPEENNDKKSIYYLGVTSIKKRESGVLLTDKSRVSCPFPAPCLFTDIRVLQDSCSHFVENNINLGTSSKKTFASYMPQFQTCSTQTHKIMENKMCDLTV
Assay: LIF-R levels in human endometrial cells (immunoprecipitation/Western blot)
Type: cell-based
Conditions: for effect on leptin-induced increase of LIF-R levels: leptin 62 nM, peptide 300 nM, 24 h; for leptin-induced expression of LIF-R: leptin 3-62 nM
Procedure: Primary human endometrial cells (ESC and EEC) were cultured for 5-9 days in DMEM-F12 medium containing 5% fetal bovine serum (FBS), 5 μg/ml insulin, 1% amphopthericin B, 100 μg/ml streptomycin and 100 U/ml penicillin until they were 80% confluent. Two types of endometrial epithelial cell lines, HES (originally derived from a benign proliferative endometrium) and Ishikawa (human endometrial epithelial adenocarcinoma, ECACC 9832301, Wiltshire, England) were cultured under the same conditions described above. The cells were washed twice with 100 mM phosphate saline buffer (PBS), pH 7.2 and cultured for additional 2 days in the same medium but without FBS (basal medium). Cells were washed as described before and cultured in basal medium containing leptin (0, 3, 10 or 62 nM) or IL-1β (0.6, 3 and 10 nM).
The anti-OB-R antibody (10 and 20 μg/ml) and LPA-2, a specific inhibitor of OB-R (3, 120, 300 nM or 30 μM) were used to assess whether leptin-induced effects were regulated primarily by the OB-R. Non-specific species-matched IgGs to the OB-R antibody and a scrambled version of LPA-2 (LPA-2Sc) served as negative controls (Gonzalez and Leavis, Endocrine 21: 185-195 (2003)). Inhibitors of IL-1R were used (monoclonal antibody anti-IL-1R tl and IL-1Ra) to assess whether leptin activated IL-1 induced signaling pathways or just activated similar components responsible for LIF/LIF-R expression. Treatment with the cytokine, inhibitor or the two combined was implemented for 5, 15, 30 and 60 min, and 24 and 48 h. The cells were prepared for Western blot analysis. The conditioned media was collected, lyophilized and stored at −80° C. until analysis for LIF, IL-1β and IL-1Ra by ELISA could be performed. Duplicate wells were run for each treatment and the experiments repeated at least three times with different cell preparations.
Endometrial cells were washed with ice-cold PBS and lysed by homogenization on ice with lysis buffer A [[…] Tris, pH 7.4, containing 137 nM NaCl, 2 mM EDTA, 10% glycerol, 50 mM β-glycerophosphate, 1% Nonidet P-40 and a mixture of proteases and phosphatase inhibitors composed of 100 μM antipain, 0.1 mg/ml trypsin inhibitor, protease inhibitor cocktail 1:50 (Sigma), 50 nM NaF, 2 mM phenyl-methylsulfonyl fluoride, and 2 mM sodium orthovanadate]. Cellular lysates were centrifuged at 2400 g at 4° C. for 10 min. For nuclear lysates the cells were scraped from the culture plates and homogenized with lysis buffer B (10 nM Tris, pH 7.4, 0.25 M sucrose, 0.1 mM EDTA containing the same mixture of protease and phosphatase inhibitors as buffer A). Protein concentrations were determined using the Bradford protein assay (BioRad Laboratories Inc., Hercules, Calif.).
30 μg of protein from nuclear or cellular lysates were incubated in ependorf tubes containing 0.5 μg of primary antibodies (anti-LIF-R, OB-R, STAT3 and p-STAT3 diluted in buffer A) for 2 h at 4° C. under constant stirring. The immuno-complexes were incubated with 20 μl of Protein G-Agarose (Amersham Pharmacia Biotech) diluted 1:1 with buffer A for a 2 additional hours under constant stirring. The beads were centrifuged for 1 min at 1000 g and washed with buffer A containing 0.5 M NaCl followed by a final wash with buffer A.
Cellular lysates and their immunoprecipitates containing 10-30 μg of protein plus Laemmli buffer (1:1) were incubated at 95° C. for 5 min. Electrophoresis was performed at 220 V for 5 min followed by 130 V for 45 min (BioRad, electrophoresis apparatus) on 7.5% (for STAT3, p-STAT3, LIF-R and IL-1R tl) and 10% (for OB-R) SDS-PAGE gels. Nuclear lysates were also used to detect p-STAT3. Electroblotting onto 0.2 μm nitrocellulose membranes was performed at 22 V overnight at 4° C. in 48 nM Tris-39 nM glycine buffer containing 0.037% SDS and 20% methanol. […]

effect on leptin-induced increase of LIF-R levels (Ishikawa cells)	leptin-induced expression of LIF-R (HES cells)	leptin-induced expression of LIF-R (Ishikawa cells)	leptin-induced expression of LIF-R (primary EEC)	leptin-induced expression of LIF-R (primary ESC)	Substance
reduced the leptin-induced increase	–	–	–	–	SRNVIQISNDLENLRDLLHVLAFSKS [LPA-2, 26 amino acid peptide, residues 70-95 of helix III of the human leptin molecule; leptin peptide antagonist]
had no effect on LIF-R levels	–	–	–	–	VAEVLNRSDLIQRISFSLDLNNSKLH [LPA-2Sc, scrambled version of LPA-2, negative control, reference compound]
–	1.3-2 fold	1.5-3 fold	1.7-8 fold	1.4-3.2 fold	leptin: human recombinant leptin (R&D Systems), OB-R ligand used as stimulus

Reference: US8058228B2, “Leptin peptide antagonists” (Boston Biomedical Research Institute, priority 2004, dated 2011)
